Assay results from patent US11466286B2, “Methods and compositions for conferring and/or enhancing herbicide tolerance using protoporphyrinogen oxidase or variant thereof” (FarmHannong Co., Ltd., priority 2016, dated 2022).
Where a chain is given by its changes, count along the chain named. Numbers in names are those of the source.

B1: CyPPO10 S60T + I340T + F360I: CyPPO10 (SEQ ID NO: 2) PPO variant (protein)
chain: MIEVDVAIVGGGLSGLSVAWRLQRSAPHYSGVLLEASDRLGGNITTQAAEGFVWELGPNTFAPTPALLQLIAEVGLHSELIRGDRHLPRYIYWRGELYPLEPTRPLALATSNLLSPWGKVRAALGALGFVPPYLGSGDESVDSFFRRHLGQEVAERLVAPFVSGVYAGDPQQLSAAAAFRRIAQLEKLGGSLIAGALRLRRQQPPQPKPPAQVQMRPGELGSFREGLAALPRAIAQQLKAPLHLQTPVEAITPEPKGGYLLRSGEQTWHARSVVLATPAYQTAELVAPFQPAIARALATIPYPTVACVVLAYPAGLGRSVRPGFGVLVPRGQGIRTLGTTWSSCLFPQRTPAGWQVFTSIIGGATDPDLASLREEAIVEQVQQDLTRLLDLPAAKARLLGMKVWRRAIPQYIVGYPQQWQQVTHALTQTPGLFLCSNYAEGVALGDRVEHGNRTAAAVAAYLAGGQS
modifications: Synthetic CyPPO10
B2: CyPPO10 A167I + F360M: CyPPO10 (SEQ ID NO: 2) PPO variant (protein)
chain: B1 chain with T60S, A167I, T340I, I360M
modifications: Synthetic CyPPO10
B3: CyPPO10 A167L: CyPPO10 (SEQ ID NO: 2) PPO variant (protein)
chain: B1 chain with T60S, A167L, T340I, I360F
modifications: Synthetic CyPPO10
B4: CyPPO10 R89L + F360I: CyPPO10 (SEQ ID NO: 2) PPO variant (protein)
chain: B1 chain with T60S, R89L, T340I
modifications: Synthetic CyPPO10
B5: CyPPO10 R89A + A167L + F360M: CyPPO10 (SEQ ID NO: 2) PPO variant (protein)
chain: B1 chain with T60S, R89A, A167L, T340I, I360M
modifications: Synthetic CyPPO10
B6: CyPPO10 V165C + A167I + F360M: CyPPO10 (SEQ ID NO: 2) PPO variant (protein)
chain: B1 chain with T60S, V165C, A167I, T340I, I360M
modifications: Synthetic CyPPO10
B7: CyPPO10 I340T: CyPPO10 (SEQ ID NO: 2) PPO variant (protein)
chain: B1 chain with T60S, I360F
modifications: Synthetic CyPPO10
B8: CyPPO10 V165C + F360M: CyPPO10 (SEQ ID NO: 2) PPO variant (protein)
chain: B1 chain with T60S, V165C, T340I, I360M
modifications: Synthetic CyPPO10
B9: CyPPO10 V305L + F360M: CyPPO10 (SEQ ID NO: 2) PPO variant (protein)
chain: B1 chain with T60S, V305L, T340I, I360M
modifications: Synthetic CyPPO10
B10: CyPPO10 F360T: CyPPO10 (SEQ ID NO: 2) PPO variant (protein)
chain: B1 chain with T60S, T340I, I360T
modifications: Synthetic CyPPO10
B11: CyPPO10 R89V + F360I: CyPPO10 (SEQ ID NO: 2) PPO variant (protein)
chain: B1 chain with T60S, R89V, T340I
modifications: Synthetic CyPPO10
B12: CyPPO10 I408R + F360M: CyPPO10 (SEQ ID NO: 2) PPO variant (protein)
chain: B1 chain with T60S, T340I, I360M, I408R
modifications: Synthetic CyPPO10
B13: CyPPO10 F324V: CyPPO10 (SEQ ID NO: 2) PPO variant (protein)
chain: B1 chain with T60S, F324V, T340I, I360F
modifications: Synthetic CyPPO10
B14: CyPPO10 I408W + F360M: CyPPO10 (SEQ ID NO: 2) PPO variant (protein)
chain: B1 chain with T60S, T340I, I360M, I408W
modifications: Synthetic CyPPO10
B15: CyPPO10 F161A: CyPPO10 (SEQ ID NO: 2) PPO variant (protein)
chain: B1 chain with T60S, F161A, T340I, I360F
modifications: Synthetic CyPPO10
B16: CyPPO10 V165C: CyPPO10 (SEQ ID NO: 2) PPO variant (protein)
chain: B1 chain with T60S, V165C, T340I, I360F
modifications: Synthetic CyPPO10
B17: CyPPO10 V165C + A167L + F360M: CyPPO10 (SEQ ID NO: 2) PPO variant (protein)
chain: B1 chain with T60S, V165C, A167L, T340I, I360M
modifications: Synthetic CyPPO10
B18: CyPPO10 L327T: CyPPO10 (SEQ ID NO: 2) PPO variant (protein)
chain: B1 chain with T60S, L327T, T340I, I360F
modifications: Synthetic CyPPO10
B19: CyPPO10 V165C + A167C + F360M: CyPPO10 (SEQ ID NO: 2) PPO variant (protein)
chain: B1 chain with T60S, V165C, A167C, T340I, I360M
modifications: Synthetic CyPPO10
B20: CyPPO10 R89A: CyPPO10 (SEQ ID NO: 2) PPO variant (protein)
chain: B1 chain with T60S, R89A, T340I, I360F
modifications: Synthetic CyPPO10
B21: CyPPO10 Q184G: CyPPO10 (SEQ ID NO: 2) PPO variant (protein)
chain: B1 chain with T60S, Q184G, T340I, I360F
modifications: Synthetic CyPPO10
B22: CyPPO13 F373L: CyPPO13 (SEQ ID NO: 4) PPO variant (protein)
chain: MNPATPEPLNAEVVVIGAGISGLTLAWRLQQGLSARGGSPQAVLLAEASSRVGGCISTQSKDGYRWEEGPNSFTPTPALLNLIAEVGLTDQLVLADAKLPRYIYWEGALLPVPLSPAAALGSRLLSVGGKLRALQGLLGFVPPPPGHEETVRQFFRRQLGSEVAERLVEPFTSGVYAGDPDQLSAVAAFPRVAGLEERYGSLFAGALQALRQRPQPSPAAIQPPPKRGQLGNLRQGLQQLPEALAQKLGDSLRLGWRALQLKRAGELYWVGFETPEGSRWVAARQVVLALPAYEAAALLQELNPPASQLLAEILYPPVAVVALAYPQEALPQPLRGFGHLIPRSQGLRTLGTIWASCLFPERAPQGYHSFLSLLGGATDAALARRRGIPPIPALSPEERAQIAHAELSQVLLTRRAEPVYLGERLWPRAIPQYTLGHRQRIAQVQAHLASQTPGIWVCANYLDGVALGDCVRRAEALAQQLLSQV
modifications: Synthetic CyPPO13
B23: CyPPO13 F373V: CyPPO13 (SEQ ID NO: 4) PPO variant (protein)
chain: B22 chain with L373V
modifications: Synthetic CyPPO13

Test system: CyPPO10
Assay: PPO enzyme activity and IC50 by herbicides, CyPPO10 wild type and variants (MBP-PPO fusion)
Format: biochemical, Thermosynechococcus elongatus BP-1
Conditions: PPO enzyme activity of CyPPO10 protein, wild type = 100
In short: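 MBP-fused wild-type and variant CyPPO10 or CyPPO13 were expressed in E. coli BL21(DE3) and purified. After a 30 min oxygen-depleting preincubation with glucose oxidase-catalase in 50 mM Tris-Cl pH 8.0, 50 mM NaCl and 0.04% Tween 20, reactions used 50 μM substrate for 30 min at room temperature. Protoporphyrin IX fluorescence (ex 405/em 633 nm) was quantified against a standard curve.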

Going from B1 to B2, the “Activity (%)” value rises from 5% to 85%.

Going from B3 to B4, the “Activity (%)” value falls from 95% to 51%.

Going from B5 to B6, the “Activity (%)” value rises from 7% to 75%.

First: B7
Second: B8
The “Activity (%)” value of the first is lower: 19% for the first, 93% for the second.

Compared with B9, B10 is higher in “Activity (%)” value: 82% for the first, 85% for the second.

Going from B11 to B12, the “Activity (%)” value falls from 57% to 5%.

Going from B13 to B14, the “Activity (%)” value falls from 59% to 5%.

First: B15
Second: B16
The “Activity (%)” value of the first is lower: 92% for the first, 99% for the second.

Compared with B17, B18 is higher in “Activity (%)” value: 83% for the first, 84% for the second.

Going from B19 to B20, the “Activity (%)” value falls from 91% to 83%.

With B21 the “Activity (%)” value was 97%.

Test system: CyPPO13
Assay: PPO enzyme activity and IC50 by herbicides, CyPPO13 wild type and variants (MBP-PPO fusion)
Format: biochemical, Synechococcus sp. JA-3-3Ab
Conditions: PPO enzyme activity of CyPPO13 protein, wild type = 100
Procedure: The enzyme activities of PPO protein and PPO protein variants were examined, and inhibition assay by PPO-inhibiting herbicides was conducted. It was confirmed that the PPO protein has low water-solubility, but in case of being expressed as a fusion protein with MBP (maltose binding protein) (MBP-PPO), the PPO protein is able to be stably expressed as water-soluble form. Therefore, the wild type and variant proteins which were expressed in the form of fusion protein with MBP were used in the present test (refer to FIG. 4).
In order to express wild type genes and mutant genes of CyPPO10 and CyPPO13 (refer to Example 1 and Example 4), those genes were introduced to pMAL-c2X vector (refer to FIG. 5) respectively, and then cloned to BL21 (DE3) E. coli (CodonPlus).
The enzyme activity of the purified wild type protein and variant proteins of CyPPO10 and CyPPO13 was measured by the following process.
At first, a substrate of PPO protein, Protoporphyrinogen IX was synthesized. This process was performed in the space where nitrogen gas is streamed. 6 mg of protoporphyrin IX was dissolved in 20% (v/v) EtOH 20 ml, and stirred under dark condition for 30 minutes. The obtained protoporphyrinogen IX solution was put into a 15 ml screw tube in an amount of 800 and flushed with nitrogen gas for 5 minutes. To this, 1 g of sodium amalgam was added and vigorous shaking was performed for 2 minutes. The lid was open to exhaust hydrogen gas in the tube. Thereafter, the lid was closed and incubated for 3 minutes. The […] was filtered using syringe and cellulose membrane filter. To 600 μl of the obtained […], 2M MOPS [3-(N-morpholino)propanesulfonic acid] was added in an amount of approximately 300 thereby adjusting pH to 8.0. To determine the enzyme activity of PPO protein, a reaction mixture was prepared with the following composition (based on 10 ml): 50 mM Tris-Cl (pH 8.0); 50 mM NaCl; 0.04% (v/v) Tween 20; 40 mM glucose (0.072 g); 5 units glucose oxidase (16.6 mg); and 10 units catalase (1 μl).
Two hundred microliters (200 μl) of reaction mixture containing a purified PPO protein were placed in 96 well plates, and preincubated for 30 min at room temperature to reduce the oxygen concentration by the reaction of glucose oxidase-catalase. The mineral oil was layered and then the reaction was initiated by adding the substrate, […], to a final concentration of 50 μM. The reaction proceeded at room temperature for 30 min and the fluorescence of protoporphyrin IX was measured using Microplate reader (Sense, Hidex) (excitation: 405 nm; emission: 633 nm). To calculate the PPO enzyme activity, protoporphyrinogen IX solution was kept open in the air to oxidize the solution (overnight). To this, 2.7N HCl was added, and the absorbance at 408 nm was measured. A standard curve was generated using standard protoporphyrin IX, and the PPO activity was measured by calibration of protoporphyrin IX using the standard curve of protoporphyrin IX.
The final concentration of each herbicide was as follows: […]

First: B22
Second: B23
The “Activity (%)” value of the first is lower: 82% for the first, 83% for the second.
